Data taken from paper PMC3082538, “High-Throughput Protein Expression Using a Combination of Ligation-Independent Cloning (LIC) and Infrared Fluorescent Protein (IFP) Detection” (PLoS ONE, 2011).

Key:
Assay in all cases: pull-down; 5 µg purified GST or GST-GRF fusion immobilised on BSA-pretreated magnetic glutathione agarose beads (MagneGST) with 0.5% Nonidet-P40 and 10% BSA; incubated with 1 µg purified IFP fusion protein, room temperature, 60 min; five washes with 0.5% Nonidet-P40; eluate read by infrared imaging (700 nm) in microtiter plates, then SDS-PAGE and in-gel detection
Conditions in all cases: both partners purified
GST-GRF3 fusion protein = biological target: T1, GST-GRF3 fusion protein (Arabidopsis thaliana, UniProt P42644 1-255)
T1 construct: GRF3 of Arabidopsis thaliana (AGI At5g38480), open reading frame in pDEST15; Printed size 56 kDa; Gateway attB linker between GST and GRF3; source: E. coli BL21 (DE3) pLysS, purified (GSTrap HP column, Äkta-FPLC); not shown: GST, N-terminal, kept
T1 sequence (looked up): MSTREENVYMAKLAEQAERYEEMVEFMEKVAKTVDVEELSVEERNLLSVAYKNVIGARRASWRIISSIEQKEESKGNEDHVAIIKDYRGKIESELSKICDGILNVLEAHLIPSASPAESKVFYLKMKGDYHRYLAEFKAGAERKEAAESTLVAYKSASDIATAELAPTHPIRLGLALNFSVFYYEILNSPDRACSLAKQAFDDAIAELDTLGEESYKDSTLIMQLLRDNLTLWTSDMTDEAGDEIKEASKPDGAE

GST-GRF5 fusion protein = biological target: T2, GST-GRF5 fusion protein (Arabidopsis thaliana, UniProt P42645 1-268)
T2 construct: GRF5 of Arabidopsis thaliana (AGI At5g16050), open reading frame in pDEST15; Printed size 58 kDa; Gateway attB linker between GST and GRF5; source: E. coli BL21 (DE3) pLysS, purified (GSTrap HP column, Äkta-FPLC); not shown: GST, N-terminal, kept
T2 sequence (looked up): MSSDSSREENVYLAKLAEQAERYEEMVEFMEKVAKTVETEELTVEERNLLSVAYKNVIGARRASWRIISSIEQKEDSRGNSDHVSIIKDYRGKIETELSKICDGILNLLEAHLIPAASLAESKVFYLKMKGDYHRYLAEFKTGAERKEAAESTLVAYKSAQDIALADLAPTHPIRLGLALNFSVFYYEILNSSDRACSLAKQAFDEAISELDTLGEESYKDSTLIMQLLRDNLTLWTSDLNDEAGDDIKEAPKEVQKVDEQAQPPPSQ

GST-GRF2 fusion protein = biological target: T3, GST-GRF2 fusion protein (Arabidopsis thaliana, UniProt Q01525 1-259)
T3 construct: GRF2 of Arabidopsis thaliana (AGI At1g78300), open reading frame in pDEST15; Printed size 57 kDa; Gateway attB linker between GST and GRF2; source: E. coli BL21 (DE3) pLysS, purified (GSTrap HP column, Äkta-FPLC); not shown: GST, N-terminal, kept
T3 sequence (looked up): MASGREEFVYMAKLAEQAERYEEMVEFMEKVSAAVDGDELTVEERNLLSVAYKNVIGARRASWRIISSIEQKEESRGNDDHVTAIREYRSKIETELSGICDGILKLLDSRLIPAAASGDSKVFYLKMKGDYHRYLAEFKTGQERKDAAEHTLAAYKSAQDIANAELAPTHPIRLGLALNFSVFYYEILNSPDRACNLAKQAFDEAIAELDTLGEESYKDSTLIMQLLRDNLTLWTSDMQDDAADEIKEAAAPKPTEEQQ

GST-GRF4 fusion protein = biological target: T4, GST-GRF4 fusion protein (Arabidopsis thaliana, UniProt P46077 1-267)
T4 construct: GRF4 of Arabidopsis thaliana (AGI At1g35160), open reading frame in pDEST15; Printed size 58 kDa; Gateway attB linker between GST and GRF4; source: E. coli BL21 (DE3) pLysS, purified (GSTrap HP column, Äkta-FPLC); not shown: GST, N-terminal, kept
T4 sequence (looked up): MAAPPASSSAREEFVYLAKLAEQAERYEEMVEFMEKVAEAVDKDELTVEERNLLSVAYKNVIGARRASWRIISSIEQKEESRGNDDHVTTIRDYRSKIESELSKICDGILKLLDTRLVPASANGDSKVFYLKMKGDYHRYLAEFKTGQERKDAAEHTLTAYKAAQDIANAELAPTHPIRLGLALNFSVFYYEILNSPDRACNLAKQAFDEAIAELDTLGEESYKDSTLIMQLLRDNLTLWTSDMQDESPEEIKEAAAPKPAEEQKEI

GST-GRF6 fusion protein = biological target: T5, GST-GRF6 fusion protein (Arabidopsis thaliana, UniProt P48349 1-248)
T5 construct: GRF6 of Arabidopsis thaliana (AGI At5g10450), open reading frame in pDEST15; Printed size 56 kDa; Gateway attB linker between GST and GRF6; source: E. coli BL21 (DE3) pLysS, purified (GSTrap HP column, Äkta-FPLC); not shown: GST, N-terminal, kept
T5 sequence (looked up): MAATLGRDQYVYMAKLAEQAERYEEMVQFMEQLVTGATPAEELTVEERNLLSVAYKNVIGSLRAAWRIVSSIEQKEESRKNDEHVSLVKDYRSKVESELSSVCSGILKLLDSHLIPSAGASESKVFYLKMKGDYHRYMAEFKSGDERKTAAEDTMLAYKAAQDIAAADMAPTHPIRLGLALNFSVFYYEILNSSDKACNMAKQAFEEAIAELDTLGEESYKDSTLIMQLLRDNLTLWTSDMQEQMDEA

GST-GRF1 fusion protein = biological target: T6, GST-GRF1 fusion protein (Arabidopsis thaliana, UniProt P42643 1-267)
T6 construct: GRF1 of Arabidopsis thaliana (AGI At4g09000), open reading frame in pDEST15; Printed size 58 kDa; Gateway attB linker between GST and GRF1; source: E. coli BL21 (DE3) pLysS, purified (GSTrap HP column, Äkta-FPLC); not shown: GST, N-terminal, kept
T6 sequence (looked up): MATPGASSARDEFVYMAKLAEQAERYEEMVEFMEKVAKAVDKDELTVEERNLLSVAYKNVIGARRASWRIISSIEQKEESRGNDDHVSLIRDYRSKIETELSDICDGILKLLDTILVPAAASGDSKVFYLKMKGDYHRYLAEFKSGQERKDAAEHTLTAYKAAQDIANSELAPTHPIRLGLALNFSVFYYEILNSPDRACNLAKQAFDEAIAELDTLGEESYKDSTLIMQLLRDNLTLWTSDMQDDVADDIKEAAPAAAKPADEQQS

Measured: binding result

B1: TPK1(1-79)-TEV-IFP-6xHis fusion protein (domain or fragment, Arabidopsis thaliana, UniProt Q8LBL1 1-79, looked up)
chain: MSSDAARTPLLPTEKIDTMAQDFNLNSRTSSSRKRRLRRSRSAPRGDCMYNDDVKIDEPPPHPSKIPMFSDLNPNLRRV
notes: potassium channel TPK1 of Arabidopsis thaliana (AGI At5g55630), N-terminal cytosolic part, amino acids 1-79; Between TPK1(1-79) and the IFP stand residues from the LIC site and the TEV cleavage site ENLYFQG (LC2 vector: ProteinX-TEV-IFP-6xHis); Printed size 47.6-48 kDa; The IFP moiety carries the chromophore biliverdin (cells grown with hemin); also called TPK1-TEV-IFP-6xHis; …
binds: all assays above
